This data set has as its target T1, Haa1(DBD)-His6 (Saccharomyces cerevisiae, UniProt Q12753 1-123).
T1 sequence: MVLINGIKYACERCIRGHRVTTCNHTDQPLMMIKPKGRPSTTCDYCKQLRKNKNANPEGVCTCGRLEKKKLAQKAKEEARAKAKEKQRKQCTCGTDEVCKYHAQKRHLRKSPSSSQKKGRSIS
Nature of the data set: SPR. (SPR reads the build-up and loss of mass on a sensor chip optically.)

B1: TPO3 wild-type HRE (GGCGAGGGG) (dsDNA)
DNA 1: TTCTCTGTGCTTGGCGAGGGGTTTACTGGAGCCCAATC
DNA 2: GATTGGGCTCCAGTAAACCCCTCGCCAAGCACAGAGAA
B1 came in with a Kd of 2 ± 0.2 nM.

B2: HRE mutant 4 (GGCGAAGGG) (dsDNA)
DNA 1: TTCTCTGTGCTTGGCGAAGGGTTTACTGGAGCCCAATC
DNA 2: GATTGGGCTCCAGTAAACCCTTCGCCAAGCACAGAGAA
In turn, B2 had a Kd of 396 ± 51.1 nM.

B3: HRE mutant 2 (GGCCAGGGG) (dsDNA)
DNA 1: TTCTCTGTGCTTGGCCAGGGGTTTACTGGAGCCCAATC
DNA 2: GATTGGGCTCCAGTAAACCCCTGGCCAAGCACAGAGAA
The molecule B3 returned a Kd of 4.3 ± 0.3 nM.

B4: HRE mutant 3 (GGCGCGGGG) (dsDNA)
DNA 1: TTCTCTGTGCTTGGCGCGGGGTTTACTGGAGCCCAATC
DNA 2: GATTGGGCTCCAGTAAACCCCGCGCCAAGCACAGAGAA
B4 registered a Kd of 13.6 ± 0.9 nM.

B5: HRE mutant 8 (GGCGAGGGA) (dsDNA)
DNA 1: TTCTCTGTGCTTGGCGAGGGATTTACTGGAGCCCAATC
DNA 2: GATTGGGCTCCAGTAAATCCCTCGCCAAGCACAGAGAA
As for B5, binding was put at a Kd of 119 ± 3.6 nM.

B6: HRE mutant 1 (AGCGAGGGG) (dsDNA)
DNA 1: TTCTCTGTGCTTAGCGAGGGGTTTACTGGAGCCCAATC
DNA 2: GATTGGGCTCCAGTAAACCCCTCGCTAAGCACAGAGAA
For the molecule B6, the Kd was 1.9 ± 0.3 nM.

B7: HRE mutant 7 (GGCGAGGAG) (dsDNA)
DNA 1: TTCTCTGTGCTTGGCGAGGAGTTTACTGGAGCCCAATC
DNA 2: GATTGGGCTCCAGTAAACTCCTCGCCAAGCACAGAGAA
As for B7, the Kd was determined as 6780 ± 865 nM.

B8: HRE mutant 5 (GGCGAGAGG) (dsDNA)
DNA 1: TTCTCTGTGCTTGGCGAGAGGTTTACTGGAGCCCAATC
DNA 2: GATTGGGCTCCAGTAAACCTCTCGCCAAGCACAGAGAA
In turn, B8 had a Kd of 21.4 ± 6.1 nM.

B9: HRE mutant 6 (GGCGAGGCG) (dsDNA)
DNA 1: TTCTCTGTGCTTGGCGAGGCGTTTACTGGAGCCCAATC
DNA 2: GATTGGGCTCCAGTAAACGCCTCGCCAAGCACAGAGAA
On to B9, for which the Kd amounted to 38.5 ± 4.5 nM.

Broadly, the Kd is the equilibrium constant for the complex coming apart.
